Source: paper PMC12309602, “NMR-guided identification of CYP11A1–Adrenodoxin interactions that differentially govern cholesterol and vitamin D3 metabolism” (The Journal of Biological Chemistry, 2025)
Residue numbers refer to the chain shown, from its start.

Experiments:
[1] = molecular target: T1, bovine CYP11A1, wild type, mature, residues 41-520 (bovine, UniProt P00189 41-520); assay: cell-based or functional assay
T1 sequence (looked up): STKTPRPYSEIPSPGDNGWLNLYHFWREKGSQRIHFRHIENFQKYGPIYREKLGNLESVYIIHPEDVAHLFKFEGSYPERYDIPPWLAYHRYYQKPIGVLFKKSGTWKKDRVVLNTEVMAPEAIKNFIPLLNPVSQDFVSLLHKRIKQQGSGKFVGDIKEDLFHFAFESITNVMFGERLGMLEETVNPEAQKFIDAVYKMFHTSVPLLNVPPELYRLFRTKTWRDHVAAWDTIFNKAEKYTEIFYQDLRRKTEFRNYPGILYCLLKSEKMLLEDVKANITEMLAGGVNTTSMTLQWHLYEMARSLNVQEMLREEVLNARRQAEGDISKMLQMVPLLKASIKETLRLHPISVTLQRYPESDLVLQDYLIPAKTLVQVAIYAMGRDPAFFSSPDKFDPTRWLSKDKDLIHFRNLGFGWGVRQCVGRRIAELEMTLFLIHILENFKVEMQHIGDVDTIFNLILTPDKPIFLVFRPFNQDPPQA

[2] = molecular target: T1, bovine CYP11A1, wild type, mature, …; assay: NMR titration; 2D 1H,15N-HSQC of 50 uM 15N-Adx with 0.25 to 1.0 equivalents of CYP11A1; 50 mM potassium phosphate, 50 mM NaCl, pH 7.2; peak intensity ratios; some samples with cholesterol or vitamin D3 in 25% HPCD added to the pre-formed complex; conditions: both partners purified

B1: bovine Adrenodoxin M77L (natural protein)
chain: SSSEDKITVHFINRDGETLTTKGKIGDSLLDVVVQNNLDIDGFGACEGTLACSTCHLIFEQHIFEKLEAITDEENDLLDLAYGLTDRSRLGCQICLTKAMDNMTVRVPDAVSDARESIDMGMNSSKIE
modifications: uniform 15N labelling in the NMR samples
reconstituted CYP11A1 assay, side chain cleavage of cholesterol: pregnenolone produced with Adx M77L compared to WT Adx, at 45 min [1]: 0.6 fold (decrease relative to WT Adx)
reconstituted CYP11A1 assay: vitamin D3 depletion with Adx M77L compared to WT Adx, at 45 min [1]: 0.7 fold (decrease relative to WT Adx)

B2: bovine Adrenodoxin, wild type (15N-labeled for NMR) (natural protein)
chain: B1 chain with L77M
modifications: uniform 15N labelling in the NMR samples
notes: Adrenodoxin (Adx), bovine; Carries a 2Fe-2S cluster; also called Adx; WT Adx; source: Ni-NTA, then size exclusion chromatography (Superdex 75)
binding result [2]: binds

B3: bovine Adrenodoxin M77S (natural protein)
chain: B1 chain with L77S
modifications: uniform 15N labelling in the NMR samples
reconstituted CYP11A1 assay: vitamin D3 metabolism with Adx M77S compared to WT Adx, at 45 min [1]: ~0.3 fold (increase relative to WT Adx)
